This is an account of results in publication PMC8773746.

In this assay the target is Human erythropoietin (Epoetin β) (human) (UniProt P01588). The assay can be described thus: SPR; EPO immobilised by amine coupling on a ProteOn GLH chip (up to 3 000 RU); S100 or CaM as analyte (0.25–4 μM); 25 °C; 10 mM HEPES, 150 mM NaCl, 0.05% TWEEN 20, pH 7.4, 1 mM CaCl2; heterogeneous ligand model, values averaged over analyte concentrations (n = 5). (SPR reads the build-up and loss of mass on a sensor chip optically.)

B1: Human S100P protein (wild-type) (natural protein)
chain: MTELETAMGMIIDVFSRYSGSEGSTQTLTKGELKVLMEKELPGFLQSGKDKDAVDKLLKDLDANGDAQVDFSEFIVFVAAITSACHKYFEKAGL
On to B1, for which the Kd1 (heterogeneous ligand model, ligand population L1) was found to be 540 nM; the Kd2 (heterogeneous ligand model, ligand population L2) worked out at 1.8 µM; the ka1 (heterogeneous ligand model, ligand population L1) came to 2000 M⁻¹ s⁻¹; the ka2 (heterogeneous ligand model, ligand population L2) was found to be 16000 M⁻¹ s⁻¹. Also, the kd1 (heterogeneous ligand model, ligand population L1) was 0.0011 s⁻¹ and the kd2 (heterogeneous ligand model, ligand population L2) was 0.028 s⁻¹.
